Assay results taken from patent US20090117126A1 (UCB, published 2009).

T1: recombinant human IL-17 (human, UniProt Q16552 20-155, limits assumed)
T1 construct: also called hIL-17; IL-17A
T1 sequence (looked up): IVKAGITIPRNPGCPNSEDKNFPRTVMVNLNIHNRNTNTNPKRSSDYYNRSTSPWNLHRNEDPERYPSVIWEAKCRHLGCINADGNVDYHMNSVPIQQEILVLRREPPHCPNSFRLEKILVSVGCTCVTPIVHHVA

B1: CDP435 (PEGylated Fab fragment, gH11gL3 graft, 2 x 20 kDa PEG) (Fab, V domains shown)
VH: EVQLVESGGGVVQPGGSLRLSCAVSGFSLTTYGVHWVRQAPGKGLEWVAVIWSDGYTTYNSALKSRFTISRDNSKNTVYLQMNSLRAEDTAVYYCARNDGDYFYSMDYWGQGTLVTVSS
VL: DVQMTQSPSSLSASVGDRVTITCRSSQSLVHSNGNTYLHWYQQKPGKAPKLLIYKVSNRFSGVPSRFSGSGSGTDFTLTISSLQPEDFATYYCSQSTHVPTFGQGTKVEIKR
modifications: 20 kDa PEG-maleimide on the interchain cysteine of CL (position 214 by Kabat numbering, 218 by sequential numbering); 20 kDa PEG-maleimide on the interchain cysteine of CH1 (cys-233 by Kabat numbering, cys-222 by sequential numbering; C-terminal residue)
notes: no interchain disulphide after PEGylation
B2: antibody Fab fragment of CDP435 (not PEGylated) (Fab, V domains shown)
VH: B1 VH
VL: B1 VL
B3: murine monoclonal antibody IL-17F4.100 (antibody, V domains shown)
VH: QVQLKESGPGLVAPSQSLSITCTVSGFSLTTYGVHWIRQPPGKGLEWLVVIWSDGYTTYNSALKSRLSITKDNSKSQVFLKMNSLQTDDTAMYYCARNDGDYFYSMDYWGQGTSVTVSS
VL: DVVMTQTPLSLPVSLGDQASFSCRSSQSLVHSNGNTYLHWYLQKPGQSPKLLIYKVSNRFSGVPDRFSGSGSGTDFTLKISRVEAEDLGVYFCSQSTHVPTFGGGTKLEIKR

What was measured:
recombinant human IL-17 [1] = molecular target: T1, recombinant human IL-17; assay: BIAcore 3000; mean of the five replicates of Table 1; mean of the replicates of Table 1; CDP435 captured by anti-human IgG F(ab)2, IL-17 in solution
Method: The assay format used CDP435 captured by anti-human IgG F(ab)₂ with a titration of recombinant human IL-17 in the solution phase. BIA (Biamolecular Interaction Analysis) was performed using a BIAcore 3000 (BIAcore AB). Affinipure F(ab′)₂ Fragment goat anti-human IgG, F(ab)₂ fragment specific (Jackson ImmunoResearch) was immobilised on a CM5 Sensor Chip via amine coupling chemistry to a capture level of ≈9000 response units (RUs). HBS-EP buffer (10 mM HEPES pH 7.4, 0.15 M NaCl, 3 mM EDTA, 0.005% Surfactant P20, BIAcore AB) was used as the running buffer with a flow rate of 10 μl/min. An injection of CDP435 was made at 10 μl/min in order to obtain around 200 Ru of Fab captured by the immobilised anti-human IgG-F(ab)₂ to the surface. Human IL-17 was titrated over the captured antibody Fab fragment at various concentrations at a flow rate of 30 μl/min. The surface was regenerated by a 2×10 μl injection of 40 mM HCl, followed by a 5 μl injection of 5 mM NaOH at a flow rate of 10 μl/min.
Background subtraction binding curves were analysed using the BIAevaluation software (version 3.2) following standard procedures. Kinetic parameters were determined from the fitting algorithm. The affinity was measured at human IL-17 concentrations at or below 12.5 nM.

monkey recombinant IL-17 = monkey recombinant IL-17 (monkey); assay: cell-based or functional assay
recombinant human IL-17 [2] = molecular target: T1, recombinant human IL-17; assay: cell-based or functional assay
recombinant human IL-17 [3] = molecular target: T1, recombinant human IL-17; assay: cell-based or functional assay; remark: listed apart in the source

| Binder | Kd (recombinant human IL-17 [1]) [nM] | IC50, monkey IL-17 (25 ng/ml) induced IL-6 production from Hela cells (monkey recombinant IL-17) [µg/mL] | IC50, human IL-17 (25 ng/ml) induced IL-6 production from Hela cells (recombinant human IL-17 [2]) [µg/mL] | IC50 (read off the curve) (recombinant human IL-17 [3]) [µg/mL] |
| --- | --- | --- | --- | --- |
| B1 | 0.224 | 0.147 | 0.158 |  |
| B2 |  |  |  | ~0.2 |
| B3 |  |  |  | ~0.2 |
